Target: purified active porcine pancreatic elastase (porcine) (UniProt P00772)
Assay: cell-based or functional assay

UniProt P00772, sequence (P00772 27-266 limits assumed): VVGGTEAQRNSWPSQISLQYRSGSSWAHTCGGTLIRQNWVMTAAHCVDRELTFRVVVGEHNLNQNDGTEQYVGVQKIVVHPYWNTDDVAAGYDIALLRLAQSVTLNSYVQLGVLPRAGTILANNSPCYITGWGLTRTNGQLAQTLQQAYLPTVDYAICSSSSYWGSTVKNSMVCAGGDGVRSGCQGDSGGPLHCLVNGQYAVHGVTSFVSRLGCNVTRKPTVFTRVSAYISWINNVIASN

A1AT concentration at which a decrease in elastase activity was detected: > 0.1 µM
Substance: plasma-derived human alpha-1-antitrypsin (Prolastin-C) (from UniProt P01009 25-418)

From patent US20230272445A1
